# Results reported in US20200317739.
# What was measured:
# [1] = test system: truncated FBP1^372-644 protein
# [2] = test system: truncated FBP1^185-443 protein
# [3] = test system: truncated FBP1^1-371 protein
# [4] = test system: truncated FBP1^1-443 protein
# [5] = test system: truncated FBP1^185-644 protein
substance,measurement,setting,value
purified recombinant EV71 viral protease wild-type 2A^pro,"in vitro proteinase cleavage assay (10 ug 2A^pro, 37 C, 4 hours)",FBP1-G375K,"in comparison with FBP1-G364K, FBP1-G366K, FBP1-G374K and FBP1-G375K, FBP1-G371K could not be cleaved by 2A^pro"
same,"in vitro proteinase cleavage assay (10 ug 2A^pro, 37 C, 4 hours)",FBP1-G364K,"in comparison with FBP1-G364K, FBP1-G366K, FBP1-G374K and FBP1-G375K, FBP1-G371K could not be cleaved by 2A^pro"
same,"in vitro proteinase cleavage assay (10 ug 2A^pro, 37 C, 4 hours)",FBP1-G371K,"FBP1-G371K could not be cleaved by 2A^pro, as shown by the absence of Cp-N and Cp-C cleavage products"
same,"in vitro proteinase cleavage assay (10 ug 2A^pro, 37 C, 4 hours)",FBP1-G366K,"in comparison with FBP1-G364K, FBP1-G366K, FBP1-G374K and FBP1-G375K, FBP1-G371K could not be cleaved by 2A^pro"
same,in vitro proteinase cleavage assay of truncated FBP1 proteins,[1],both truncated FBP1^1-371 and FBP1^372-644 proteins were not cleaved by 2A^pro
same,in vitro proteinase cleavage kinetics of [35S] methionine-labeled FBP1 (data not shown),wild-type FBP1 protein,"Cp-N and Cp-C were detected after 15 minutes of incubation with 2A^pro, and the levels of Cp-N and Cp-C increased over the 4 hours of incubation"
same,"in vitro proteinase cleavage of [35S] methionine-labeled FBP1 (SDS-PAGE, autoradiography)",wild-type FBP1 protein,"FBP1 was cleaved by 2A^pro in a dose-dependent manner that resulted in two major Cps, a 38-kDa Cp designated as Cp-N, and a 33-kDa Cp designated as Cp-C"
same,in vitro proteinase cleavage assay of truncated FBP1 proteins,[2],"FBP1^1-443, FBP1^185-644 and FBP1^185-443 containing the Gly-371 cleavage site were cleaved by 2A^pro; 19-kDa cleavage product"
same,"in vitro proteinase cleavage assay (10 ug 2A^pro, 37 C, 4 hours)",FBP1-G364-380K,but not on mutant FBP1-G364-380K
same,in vitro proteinase cleavage assay of truncated FBP1 proteins,[3],both truncated FBP1^1-371 and FBP1^372-644 proteins were not cleaved by 2A^pro
same,"in vitro proteinase cleavage assay (10 ug 2A^pro, 37 C, 4 hours)",FBP1-G374K,"in comparison with FBP1-G364K, FBP1-G366K, FBP1-G374K and FBP1-G375K, FBP1-G371K could not be cleaved by 2A^pro"
same,in vitro proteinase cleavage assay of truncated FBP1 proteins,[4],"FBP1^1-443, FBP1^185-644 and FBP1^185-443 containing the Gly-371 cleavage site were cleaved by 2A^pro; a 38-kDa cleavage product was yielded from FBP1^1-443"
same,in vitro proteinase cleavage assay of truncated FBP1 proteins,[5],"FBP1^1-443, FBP1^185-644 and FBP1^185-443 containing the Gly-371 cleavage site were cleaved by 2A^pro; 19-kDa cleavage product, and FBP1^185-644 also yielded a 33-kDa product"
same,"in vitro proteinase cleavage assay (10 ug 2A^pro, 37 C, 4 hours)",FBP1-G345-362K,in vitro 2A^pro cleavage occurs on mutant FBP1-G345-362K
